# Results: the domain aggregation screens of Martell et al. (2025)
# Experiment: soluble fraction after stress (log2 fold change); higher = more stays soluble; pooled small domains, quantitative proteomics
# Settings: stress: 50 degC
# Outline: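 Each library was heated to 50°C as a stress step. The libraries, made up of small protein domains, were pooled and analysed at high throughput by quantitative proteomics. The reported value is the base-two logarithm of the fold change in each protein's soluble amount after stress, taken as a measure of aggregation propensity. The higher the value, the more protein stays in solution.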
row,Sequence,soluble fraction (log2)
1,HMTIYLSENIKRLRLEKELTQETLSEFLGVTSQSVSNWERGESYPDITMLPEIADFFKVSVDELLGVNRAE,-0.889
2,HMHPVTGRIGTVTAANGLNLRADSSEYANVVATLGYGVDVTVTGERINGFYPVRVGTLSGYVSADYVSFNS,-0.238
3,HMATFTPYLVRITASVLNIRKGPGTTYAVTGQIKDRGVYTIVEQKGNWGRLKSGAGWISLSYTKK,-3.12
4,HMAHPRTHEALNPLWEKYLGPNAGNDFFLSGGTSLKALMFLKDLEKTLNKRIAIHAFFKDPTYEHVVSD,-0.683
5,HMKNIFDWLKQINYHKQPADSFTEKDWELFNSYMVHRFMSMNREFIEVVNYVQEMPPQEKILIYNIYREF,-1.02
6,HMTATVPDSEAGIRLDVYAAALLGVSRAGAQKYIESGAVRVNGLPAPKNRRLESGDVIEAVLPDPE,0.157
7,HMQKDYKTRLQEYYAKVGKKVNYMDSSTGPDHDKKFQTQVFLDKEIIGVGEGKSKKSSQQEAAKQALEKI,0.338
8,HMQKFINQEHEKAYNLMLEKDYQQALKIFDDLIYLFPNEANLLSDRGVIFIHLNKKEAALQDFDQAVF,-2
9,HMNVWGLSERELEATRLLIEGFSSKEASARMGISPSTVRSLWGRARAKMGVDSIEDARELVA,-0.236
10,HMLPAGAAAPLEDGSAPEGYTVKGNADSGLYHEPDGRWYDATVAEFWFKTAADAEAAGFRKAGS,0.121
11,HMSGIVPAAPPLRPDLDIKWHTGDKVRHAKWGEGTIVSVKGEGEETELKIAFPGQGIRPFMQKYAPITR,0.163
12,HMYELDIYPNPAIDKINVLLPSSTTLPVKVEIYDIMGKKVNSLLTTKKAFTIETDQFEKGIYFVKA,0.0213
13,HMSGMEKLAIQEIEKEIKSFVKGDILIELTGKNRATAYVSEKNVGALIGKKGERINSIEKRLGVGIDVRPY,0.00444
14,HMGGEKLPAPVAGTLLRYSVAEGARVSEGQTVIILESMKMELEINTPKAGVIHFLAAVGAQVAEGDTLAEI,-1.82
15,HMLIIMNSDATKEQVDHVTSRVREAGFKDHIMPGAGKVAIGVTGTGDYDQTKLHLEILPGVFKIMRITK,0.0895
16,HMSSSYVYGGNGEIVILSDVSKHLNVYNLNGQKVTDVNLTAGELQRISIATGIYVVGGKKIVV,-2.92
17,HMKEIYIDRGKEALEKELRKRKIPFQEFLSKENTNLLFDTLKIPSHDLEELYLEIGNGKHAASTVVNTVY,0.136
18,HMSRLLTTRQREVFEVATREGFWDVPRRINLSELAKVLGVAKSTLSSQLQRIESAVFHAFTDEIRRQS,-2.16
19,HMQISDNTILEDAVSRIIDENPKSVSDYFQGKEAVVGFFIGQIMRETKGTANPKIAREIVISHLEAI,-0.778
20,HMKREELTQQTKQNLREAFWSLYIQKPIEKITVKEITDIAGYNRGTFYLYYKDTYDLLAKIE,-0.149
21,HMALPPPELRGATGEAVTALRPAGIALIQGKRYDVLAEGGEWIAAGAAVRVRDIRNGHLIVSDA,0.00767
22,HMPSNVKIPDVTGKTVAQARSAIEAAGLKVGKEKDEYSDSAKKDSVIRTNPQAGTQRREGSTVDLIVS,0.122
23,HMNPSFTMGTRIKEYIDAHYLEDLKLADIAEALHINLYYLSHTFKDLTGSSPMQYIIRRRIEE,-0.778
24,HMIKEVGYEKFMQMTEEEDIGRVEIDQEENQITFTDKDETAIYKTGMVDDPDLTERLYDAGAEFS,0.0297
25,HMTKQDYLTALQQELNKNAVADAEDIVSEYEQHFQFKLADGFTEEEIAAKLGAPAQIALQFAG,0.167
26,HMKSIETVAELVAELKKLNPNAKISNIDGTYTLEEDINTITLPKDFKYDNNLGINNKIDDFTPYISLDVKA,0.41

row,Sequence,soluble fraction (log2)
1,HMTSTSVKYVNSSSGLNVRKGPSTSYDKVTTLVNGTKVTVISTNNGWSKITSGSITGYVSSQYLSSSS,-0.147
2,HMEQYFEDEELNDKFLEFLAMRKRVRKPVQTDRGMKMLLTSLHKLSGGDVGLMKQIIDQSLDNEWKKFVA,-0.673
3,HMVNHEERKRLIAEATWRTISHVGIEQASVRTIAKEAGLSLGALRYYFTTQEELLRFSMQLVQERV,-0.0983
4,HMNSSTYIVTFKVDGEEDIVETYQWGDRIIVPEVEAKDDYVFIGWDAQIPEFMPERNLEFTAI,-1.14
5,HMVNLLVTPLEELEINFRTLRALRKYNIYQLEDLLRFIKYNGFDALRIVPGMGIKSTEQLYEKLKDKNI,-0.236
6,HMTDYREILRLLSLGLSRTQIADSLNVSRTTVIHTLQRAVAQELDWQTAEGMSDRELVAKLFPV,-3.47
7,HMNTFKNIFIQEGDLFNLKKNDNQIIFAKEGILINENKKIFRLLNGKIISTNNNRLIGFEFDKIDYNLSN,0.489
8,HMQKYSTIIGVIELRQSGIGYRTTKKRYNIGNSTVTLIMNRFHELGLSLEELKAMPPKKVEEAFYPPE,-2.43
9,HMGGEAEVLQSIDEGREVEVRSVAADGSAEVIYRGARWRARAAVGSLAAGRWTIGRVDGTELVLEK,-0.0207
10,HMSDESRAEIVSSAKRLFQQYGYKKTTVSDIAKAMGKVKSAIYYYFPDKESLLRAVIDEEVG,-0.0483
11,HMDVQNLTKKNQEFINIVTHQLLQSGKSDEDIQTILAKTLPEIIEKQKQGIPARSFLGAPTAWAAQFI,0.133
12,HMSHGYVEMQAKDDQVLLAALKNHPWFEKVSIDEETGLTKAILTQPIEAEELNSMLFEKGIVLSHLVKRK,0.234
13,HMGVNNDIIKHRKLEFMIEMLPDTFTRKEANEIGEGLGISLATLTRYLSSDAFERTGHGRYRKKD,-1.08
14,HMKPKDILLPNFTNLTLDEAKAKAEEVKLNLNVSEEKYDVQIEEGKIISQDPKYQPNYTVKEGSTVNVVVS,0.161
15,HMEKNILPDTSPEKQYEFATSFLKVGDYSTAERAFREFVINNSEHKLAGNAQYWYAETFRIRQ,-0.101
16,HMATPKYMELVRWINEQIESKNLVPGQKMYSENTLKEMFGVSRQTVRHAIGVLENEGVIRRIQGSGTYIN,-0.829
17,HMTANDKRNALYRKIEVGRRQLPAMDEVAFRQLLAAEFGVESRKDMSVGQLSRLVNILAEKGAVF,-0.203
18,HMNLLDYDFFEKMSSKEQEEIVEKVYIDFLNKSTGTNSPFYLKLFEKGKKSYIVNWLNENNF,-1.44
19,HMEDDRMLVWFFRKSIQNGAQSEAEGRPIFEGKDYVHIQQPGERDYIEREAHQGDIGRWPRHWQAYQEGR,-0.329
20,HMHYNMNYLENLTKTELFDLAKNKFGLTYAEMERHLSIPEGGARYAIKAEHSKYGSDIKKYLVEFLLE,-1.18
21,HMTGRVKWYDATKGFGFVTSDEGGDVFLPKGALPAGVADLKTGQRIEFGVVDSRKGAQALGVK,0.337
22,HMYIDNVTIYDVGFNERIVHALERAGVKNLYDLSQMNFYQLQRIRNLGASSLEKVINRIHSYGILLKNES,-1.2
23,HMLRISLAAARVNAEMTQEDVAREMHVSKNTVVNWEKGKSEPTISQSRELSKLYNMPLEYIFYL,-3.05
24,HMEGFSAGQFVRASVDNTAFYLKRPKGDAVADKLLRRGASMKVISASGDYLKVELDSGEVGFVPPVMVE,0.05
25,HMLPQYELIKQYLRHQIETGEWPIGYRTPSEPKLAEQFSVSRMTARRALQELADQGLLSRTAGSGTFVAKP,-0.483
26,HMELTKAELEVMQILWKLKKAFVGDILDRMVEPKPAYNTVSTVVRLLEKKGVVGHESFGKSHRYYPL,-3.22

row,Sequence,soluble fraction (log2)
1,HMDYYSILGVDRNATGEDIKKAFKKKAMKYHPDRNPDNKESERKFKEAKEAYDTLSNPQKKSMYDQFGT,0.0734
2,HMQYDALVLNLLQEKNLTSESLKDAQRAFAKSHNLSTLPSKSQILQAYFQLLEQGKIEKNPDFELLL,-0.108
3,HMSDLLYAHPTEKGFQLVNVTQKVVMVILKTAAPNVYTVKGKNAIVFKEGNSWFYSENHNKKLLNIK,-1.13
4,HMVNKQERTYTILRDRIHSGSFAPLERLNIDALARELGVSPIPVREALRRLEAEGWVRFTPNVGAVVSP,-0.165
5,HMQSAKLSYSDFMQKVNAGDVVSVKIQGPKISGVTTGGGKFMTYAPEDPTLVSTLMQKKVEVMAEP,0.178
6,HMQIYLTPEQFKIIDFMEQMGKITVKDVMDILNIPKRTAQLHLQKLKTLKMIAQTGKGPSSAYLL,-0.959
7,HMKLEKKWIEAVEKYRRYVLSTGIKHVQKPIEFENFRLGQWYADVRQSYRRGTLSKEKLLEIREINPDFPN,-0.276
8,HMTLAAATESREYLADLARRLDAADHGDKTRIKAEAAGLLGWSMATLHARLARDVGWTSGRK,-0.0944
9,HMKDMWNRIRRARLSAGLSQAALAKETGVRRSAVTQWEKEGGTSPSVANLARIAVVTQVHFEWLATGRGPG,-2.67
10,HMNQRQLQIKQMLDVAQEVFLKQLKTVFPDVSEMTIRRDLILLEDMGYAVRTHGGAVSINRF,-2.14
11,HMKNLKLVSNTDGIRIDSWLADEFEDYSRSYLRKLIDQDLVYVNGNKIKANYKLKKGDEISISIPEPE,0.142
12,HMDTNKMLIVNSISNGMKRLQELQDPQLAEIQKTFSGLDEQKATSAQLAQINNIINNRIAEIEG,0.145
13,HMKRNLVSVLDHIVGIGPKRRQSLRTHFGSLEKIKEASVEELAAAPGMNRTSAEAVRHFFDAQQELRGK,0.537
14,HMGMYFTEMRKNEGLIALNGVAESNKRVSDLMDNLKDSSSFDAADIKAVKSGSGDASSLMDFELLVT,0.113
15,HMALTQEQLGQRLQDARKSVALTQQEVAEDLGLSRESLAQIEAGSRSVNSLEIVRLARLYGRSLSSILLE,-0.612
16,HMQTLQNNLKQIRSRVGLTQGELASRAGISRQAYSTLESGNANPSTEVSLRLAEALNERIESLFFLANQ,-0.275
17,HMTTTAGTAVVQTGNSGKLNLREQAYSNAGILGRYSNGTIVTVLQKGSAWSYVEVQGQKGYMMSKFLRFT,0.293
18,HMVSPFQQQIADKVHNEIIAAKFNYDNATNENERLLAQLQAKKARELANQYGLDMSSYGADTTAERS,0.235
19,HMLADEPTGALDSKTSVQIMALLTEIAQDRLVIMVTHNPELADEYATRIVNLRDGVISDDSDPFNP,-0.079
20,HMPDYAFEGVVIKLTHRDYDRWKAGFPDVDLPPYLTARDAWLSEQTPADRKNWFVSTATDLRNFQKREAI,-1.66
21,HMKTLNKRQQDIINLAREEGFVTVEHLSEYFKVTQQTIRRDLGYLSENLYLARTYGGAFFQS,-0.872
22,HMTVVSVDDQASASSEAIRTKVAGDSAARMSVDAGGKITWGAGSASGDVTLYRSAANTLKTDDTLVAT,-0.0266
23,HMELSESLENYLVVIYEAHLRNEIARIKDMTASLSVKHTSAIDAIKKLEDLGIVNYEKRGFVKLTQSGIEK,0.0501
24,HMDLQAAWLQTVRHLLAHTEDVGDRFAEEARRIHYGEEPHRGIRGQATPEERLALREEGIETMSIPV,-0.631
